Measurements taken from publication PMC7698382.

Tests used:
[1] = molecular target: Purified human plasmin (human); assay: protease inhibition assay (residual amidolytic activity, tight-binding inhibitor fit); enzyme (plasmin 3 nM; FVIIa/sTF 20 nM; pKLK and FXIa 1 nM each) incubated with inhibitor (10^-1 to 2 x 10^3 nM; up to 3 µM in Figure 3B) for 1 h at room temperature in TBS pH 7.5 (50 mM Tris-HCl, 100 mM NaCl), 0.1 mg BSA/mL, 2 mM Ca2+; synthetic substrate added to 1 KM; Ki corrected for substrate
[2] = molecular target: DIP-δplasmin (active-site blocked δplasmin; recombinant plasmin containing the protease domain and the first kringle domain, treated with DFP); assay: SPR; Biacore T100, 25 °C; DIP-δplasmin or tPA amine-coupled to CM5 chip; analyte KD1-Y11T/L17R-K_(COOH) 100 to 2000 nM in HBS-P (20 mM HEPES pH 7.4, 100 mM NaCl, 0.005% P20), 10 µL/min, 6 min association, 10 min dissociation; regenerated with 20 mM EACA; 1:1 binding model, Kd = kd/ka
[3] = molecular target: Tissue plasminogen activator (Alteplase) (UniProt P00750); assay: as above
[4] = molecular target: Human factor VIIa in complex with soluble tissue factor (sTF, residues 1-219) (UniProt P08709); assay: protease inhibition assay (residual amidolytic activity, tight-binding inhibitor fit); enzyme (plasmin 3 nM; FVIIa/sTF 20 nM; pKLK and FXIa 1 nM each) incubated with inhibitor (10^-1 to 2 x 10^3 nM; up to 3 µM in Figure 3B) for 1 h at room temperature in TBS pH 7.5 (50 mM Tris-HCl, 100 mM NaCl), 0.1 mg BSA/mL, 2 mM Ca2+; synthetic substrate added to 1 KM; Ki corrected for substrate
Plasma kallikrein = Plasma kallikrein (UniProt P03952); assay: as above
[5] = molecular target: Purified human factor XIa (human) (UniProt P03951); assay: as above

A Ki [1] of 0.9 nM was found for “KD1-L17R-K_(COOH) (60-residue single mutant of human TFPI-2 Kunitz domain 1 with C-terminal IEK), E. coli expressed (domain or fragment)” in this work.
A Ki [1] of 0.59 nM was found for “KD1-Y11T/L17R-K_(COOH) (60-residue double mutant of human TFPI-2 Kunitz domain 1 with C-terminal IEK), Pichia pastoris expressed (domain or fragment)” in this work.
A Kd [2] of 47.6 nM, a koff [2] of 7.13e-05 s⁻¹ and a kon [2] of 1490 M⁻¹ s⁻¹ were found for “KD1-Y11T/L17R-K_(COOH) (60-residue double mutant of human TFPI-2 Kunitz domain 1 with C-terminal IEK), expression host not stated for the experiment (domain or fragment)” in this work. The Kd [3] was 35.4 nM, the koff [3] was 0.000105 s⁻¹ and the kon [3] was 2910 M⁻¹ s⁻¹. The Ki [4] was over 3000 nM, the Ki (Plasma kallikrein) was over 3000 nM and the Ki [5] was over 3000 nM.
A Ki [1] of 6 nM was found for “Wild-type KD1 (Kunitz domain 1 of human tissue factor pathway inhibitor type-2) containing the IIa cleavage site (domain or fragment)” in this work.
A Ki [1] of 0.59 nM was found for “KD1-Y11T/L17R-K_(COOH) (60-residue double mutant of human TFPI-2 Kunitz domain 1 with C-terminal IEK), E. coli expressed (domain or fragment)” in this work.
